Measured values as given in patent US20230144459A1 (BIOND BIOLOGICS, published 2023).
Numbering of substitutions follows the chain as printed. Where no end group is shown, it is not given here.

T1: c-Myc conjugated and biotinylated human CD28 stalk region dimeric peptide (wild-type) (human, C-terminal biotin; dimer by a disulfide linkage at Cysteine 141 (CD28 numbering))
T1 construct: N-terminal tag, five glycines, then His134-Pro152 of human CD28; also called substrate peptide; wild-type CD28 stalk region dimeric peptide
T1 peptide: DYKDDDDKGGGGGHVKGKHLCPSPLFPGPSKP

T2: L145K CD28 stalk region dimeric peptide (human, C-terminal biotin; dimeric)
T2 construct: also called CD28 stalk region peptide with mutation at the cleavage site
T2 peptide: T1 peptide with L25K

T3: BSA conjugated CD28 stalk region dimeric peptide (human, also: dimer, conjugated to BSA via C-terminal Lys)
T3 construct: also called stalk region peptide
T3 peptide: GKHLCPSPLFPGPSKPK

B1: VHH clone 2A1 (VHH)
VHH: EVQLVESGGGLVQAGESLRLSCAASGSIASINAMGWYRQAPGSQRELVAAISGGGDTYYADSVKGRFTISRDNAKTTVYLQMNSLRPEDTAVYYCVVDLYGSDYWDWGQGTQVTVSSAAAHHHHHH
notes: VHH with AAA linker and C-terminal His6, made in CHO cells; also called VHH #2A1; 2A1-6H
B2: VHH clone 4A1 (VHH)
VHH: QVQLVESGGGLVQAGGSLRLSCAASGSIFSINAMGWYRQAPGKQRERVAAITSGGSTNYADSVKGRFTISRDNAKNTVYLQMNNLEPRDAGVYYCVVDLYGEDYWIWGQGTQVTVSS
notes: VHH with AAA linker and C-terminal His6, made in CHO cells
B3: VHH clone 4A4 (VHH)
VHH: EVQLVESGGGLVQAGGSLRLSCAASGSLFSINAMAWYRQAPGKQRELVAAITSSGSTNYANSVKGRFTVSRDNAKNTMYLQMNSLKPEDTAVYYCVVDEYGSDYWIWGQGTQVTVSS
notes: as for B2
B4: antibody M9 (antibody, V domains shown)
VH: DVKLVESGGGLVKLGGSLKLSCVASGFTFSSYYMSWVRQTPEKRLEWVATISDGGDNTYYAGTVTGRFTISRDFAKNTLYLQMNSLTSEDTAVYYCARIHWPYYFDSWGQGTTLTVSS
VL: QFVLSQSPAILSASPGEMLTMTCRASSSVSYMNWYQQKPGSSPKPWIYATSDLASGVPARFSGSGSGTSYSLTISRVEAEDAATYYCQQWSSHPPTFGGGTKLEIR
notes: Full-size mouse antibody from CD1 mice immunised with the dimeric stalk peptide, detected with anti mouse IgG; also called clone M9; anti-cleavage antibody M9

Columns and labels:
membranal human CD28 [1] = target: T4, membranal human CD28 (human, UniProt P10747 19-220); assay: flow cytometry on HEK293 cells over expressing human CD28; percent reduction of median CD86-Fc (2 µg/mL) signal; competitor CD86-Fc
T4 construct: Full-length human CD28 on stably transfected HEK293 cells, or native CD28 on human CD4 T cells and PBMC in the shedding assays; Homodimer through Cys 141; also called mCD28; membrane CD28

membranal human CD28 [2] = target: T4, membranal human CD28; assay: cell-based or functional assay
[3] = target: T1, c-Myc conjugated and biotinylated human …; assay: direct ELISA, wild-type biotinylated dimeric stalk peptide on neutravidin plates
[4] = target: T2, L145K CD28 stalk region dimeric peptide; assay: direct ELISA on biotinylated dimeric peptide on neutravidin plates
[5] = target: T3, BSA conjugated CD28 stalk region …; assay: ELISA, BSA conjugated dimeric peptide on plate, serial dilution of M9

Row | Binder | Blocking CD86 binding (%) (membranal human CD28 [1]) | Inhibition (%) of CD28 shedding (membranal human CD28 [2]) | binding result [3] | binding result [4] | binding result [5]
1 | B1 | 8.2% | 58.9% | binds | no binding (tested: 0.2-5 µg/mL) | –
2 | B2 | – | – | binds | no binding (tested: 0.2-5 µg/mL) | –
3 | B3 | – | – | binds | no binding (tested: 0.2-5 µg/mL) | –
4 | B4 | – | – | – | – | binds
